Test results as given in the supplement of paper PMC6755084.

B1: F1*; the commonest letter at each place (parent)
chain: GAGACCGCAACTGAAAAGTTGTTATCACTTGTCGTAAGACACTTTGGATGGGTTGAAGTTCTGCACGTAGAAGCAAAAGGC

Variants of: B1
Assay: fraction ligated after 30 min (ligated reads / total reads); higher = more ligase activity
Settings: with F1*sub RNA substrate (template-directed ligation), 42 °C
Method: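 Chip-synthesised pool of F1* ligase ribozyme variants (all single and double substitutions, single, double and triple deletions in the catalytic core and GAA bulge, plus designed variants) was transcribed with T7 and reacted as a pool with excess substrate F1*sub for 30 min at 42 C in 50 mM EPPS pH 8.5, 25 mM MgCl2. Ligated and unligated bands were separated by PAGE, barcoded by RT and deep sequenced; fraction ligated = ligated reads / total reads per variant, relative activity = FL / FL of wild type (0.826). Sequences are the DNA template of the ribozyme.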

In order of rising fraction ligated:
1. G50C A56C  0.00754
2. C26T G50C  0.0206
3. G34C T49C  0.0345
4. G46C A48T  0.0498
5. G47T G50A  0.0507
6. T25A G46T  0.0811
7. A41C T45G  0.0888
8. A39T T49C  0.0992
9. T32C A48T  0.114
10. T44G G50A  0.132
11. G50T G55C  0.143
12. C33T G47C  0.165
13. G31T T49G  0.19
14. C28G G50C  0.19
15. T35C G47C  0.213
16. C28G G50A  0.224
17. C40A G47C  0.25
18. G31T A48C  0.292
19. T35G G47T  0.391
20. C26G T43G  0.479
21. T35G G50C  0.486
22. T43G G47T  0.52
23. C33G G55C  0.643
24. C40G T45A  0.688
25. T25A T29G  0.691
26. C28G A56C  0.7
27. C26G T44C  0.731
28. G34C G50T  0.733
29. C28T G50T  0.747
30. A24C A37T  0.754
31. T30G T45A  0.76
32. G34A A41C  0.76
33. G34T G46T  0.763
34. G55C  0.778
35. A24T T44C  0.778
36. T23A G31C  0.779
37. G31T A57T  0.78
38. T44C A48C  0.783
39. C28A A48G  0.784
40. T30G A39C  0.786
41. T32C A36G  0.786
42. C33A A48G  0.79
43. G38T A41G  0.792
44. C26A T44A  0.792
45. C42G G46T  0.793
46. G34T T43G  0.793
47. A37C T49G  0.797
48. A39C A57T  0.798
49. T23A T44G  0.801
50. T25C T35G  0.801
51. A37G A56C  0.802
52. C26T C42A  0.804
53. G34A G47A  0.805
54. C33T G46C  0.807
55. C42G G46A  0.808
56. T23G G55C  0.809
57. T23C C40T  0.811
58. T29A T44G  0.812
59. T44A A57G  0.812
60. C28T C42G  0.813
61. T30A G38A  0.813
62. G38A A39C  0.817
63. T30C C42A  0.817
64. C33G C40A  0.819
65. T29A A39C  0.82
66. T35A T44G  0.821
67. T29G A36C  0.825
68. T32G A41T  0.826
69. A39C C42T  0.827
70. A27T C28A  0.829
71. A36T C40T  0.83
72. T29A G55A  0.84
73. C33A G46A  0.84
74. T30G  0.843
75. C33T A56T  0.847
76. T23G C33G  0.848
77. A37C C42A  0.849
78. C33G A37T  0.853
79. G34T T35A  0.854
80. T23A T32A  0.859
81. T30G A37T  0.86
82. A27T G31T  0.862
83. T23G A39G  0.867
